Experiment [1] addresses T1, human PD-L1 on cells (human, UniProt Q9NZQ7 19-290).
T1 construct: whole, on cells; also called HEK-PD-L1 cells; PD-L1-expressing HEK 293 cells
Briefly: flow cytometry on HEK PD-L1 cells, MFI.

Experiment [2] deals with T1, human PD-L1 on cells. Briefly: flow cytometry on activated CD4 T cells, saturation fit on a linear axis. In general terms: A flow cytometer gives signals particle by particle.
Experiment [3] addresses T1, human PD-L1 on cells. The experiment in a line: flow cytometry on HEK-PD-L1 cells; PE anti-human Fc, MFI.
Experiment [4] addresses T1, human PD-L1 on cells. The experiment in a line: flow cytometry on monocyte-derived dendritic cells, saturation fit on a linear axis.
The target of experiment [5] is T1, human PD-L1 on cells. The experiment in a line: flow cytometry on HEK PD-L1 cells, saturation fit on a linear axis.
The target of experiment [6] is T1, human PD-L1 on cells. Briefly: flow cytometry on HEK-PD-L1 cells, saturation fit on a linear axis; column head prints only Kd, unit taken from the axis Ab (nM).
The target of experiment [7] is T1, human PD-L1 on cells. The experiment in a line: flow cytometry on activated CD4 T cells, MFI.
Experiment [8] concerns the target T2, recombinant human PD-L1 (human, UniProt Q9NZQ7 19-238, limits assumed).
T2 construct: also called PD-L1 protein
Briefly: ELISA on human PD-L1, OD 650 nm.

The target in experiment [9] is T1, human PD-L1 on cells. The experiment in a line: flow cytometry on monocyte-derived dendritic cells, MFI.
Experiment [10] addresses T3, human PD-L1-his (Sino Biologics) (human, UniProt Q9NZQ7 19-238).
T3 construct: Bought from Sino Biologics; not shown: his tag
Briefly: competition ELISA: human PD-L1-his coated at 1 µg/ml, antibody dilutions, then human PD-1-mouse-Fc at 1 µg/ml, anti-mouse IgG-HRP, OD 650 nm. The protocol: Plates were coated with 100 μl of 1 μg/ml human PD-L1-his (Sino Biologics, Beijing, China) in carbonate-bicarbonate buffer overnight. After washing, plates were blocked with PBS 0.05% Tween-20 for 1 hour, and serial dilutions of anti-PD-L1 human chimeric antibody or IgG1 isotype control antibody was added. […] After washing, goat anti-mouse IgG (H+L)-HRP antibody (Jackson ImmunoResearch West Grove, Pa.) and plates were further incubated for 1 hour. After washing, TMB substrate (SurModics, Eden Prairie, Minn.) was added. The reaction was stopped using stop solution (SurModics) and plates were read at OD=650 nanometer.
(In general: An ELISA detects its analyte on a solid surface through an enzyme-linked reagent.)

In experiment [11] the target is T1, human PD-L1 on cells. Briefly: flow cytometry on monocyte-derived dendritic cells; PE anti-human Fc, MFI. The protocol:
The chimeric PD-L1 antibodies were further assessed for their ability to bind to human myeloid-derived dendritic cells. CD14 monocytes were isolated from PBMC using directly conjugated magnetic beads (Miltenyi) and cultured for 7 days in the presence of GM-CSF (100 ng/ml) and IL-4 (50 ng/ml) (Peprotech) to generate myeloid dendritic cells (mDC). mDC were added to 96-well plates (100,000 cells/well) and serial dilution of anti-PD-L1 antibodies or IgG1 isotype control antibody was added in duplicates and plates were incubated for 30 min on ice. After washing, a PE-conjugated donkey anti-human Fc specific antibody (Jackson Immunoresearch, 1:200 dilution) was added and plates were further incubated for 15 minutes on ice. After washing, cells were analyzed using a MACS quant flow cytometer.

Experiment [12] has as its target T2, recombinant human PD-L1. The experiment in a line: direct ELISA on plate-coated recombinant human PD-L1; anti-human Fc-HRP, TMB, OD 650 nm. The procedure:
(§1) To assess specificity of the selected clones, a direct ELISA for human and cynomolgus monkey PD-L1 was performed. ELISA plates were coated with recombinant human or cynomolgus monkey PD-L1. […] Serial dilutions of chimeric anti-PD-L1 antibodies were added, and a secondary HRP-conjugated, anti-human Fc-specific antibody was added. After washing, TMB substrate was added and plates were read at OD 650 nm.

The target in experiment [13] is T1, human PD-L1 on cells. Briefly: flow cytometry on human PD-L1 transfected HEK 293 cells; PE anti-human Fc, MFI. The protocol:
Stable human PD-L1 transfected HEK 293 cells (Crown Bio, San Diego, Calif.) were added to 96-well plates (100,000 cells/well) and serial dilution of anti-PD-L1 antibodies or IgG1 isotype control antibody was added in duplicates and plates were incubated for 30 minutes on ice. After washing, a PE-conjugated donkey anti-human Fc specific antibody (Jackson Immunoresearch, West Grove, Pa. 1:200 dilution) was added and plates were further incubated for 15 minutes on ice. After washing, cells were analyzed using a MACS quant flow cytometer.

Experiment [14] concerns the target T4, recombinant cynomolgus monkey PD-L1 (cynomolgus monkey, UniProt G7PSE7 19-238).
T4 construct: also called cynomolgus macaque PD-L1
Briefly: direct ELISA on plate-coated recombinant cynomolgus monkey PD-L1; anti-human Fc-HRP, TMB, OD 650 nm. The protocol:
as §1

In experiment [15] the target is T1, human PD-L1 on cells. The experiment in a line: flow cytometry on CD4 T cells activated with anti-CD3; MFI; column head prints only EC50, unit taken from the axis Antibody Concentration (nM).
The target of experiment [16] is T2, recombinant human PD-L1. Briefly: competition ELISA: PD-L1 coated, serial dilutions of the antibody, then biotinylated Atezolizumab at 1 µg/ml, streptavidin-HRP, OD 650 nm.

Residue numbers refer to the chain shown, from its start.

T2 sequence (Q9NZQ7 19-238 limits assumed): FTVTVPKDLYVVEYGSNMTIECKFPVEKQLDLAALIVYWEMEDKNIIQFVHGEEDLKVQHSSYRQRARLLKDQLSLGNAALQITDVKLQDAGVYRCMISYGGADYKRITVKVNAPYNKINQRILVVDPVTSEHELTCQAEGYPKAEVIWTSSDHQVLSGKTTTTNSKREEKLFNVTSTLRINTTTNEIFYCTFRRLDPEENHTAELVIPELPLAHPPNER
T4 sequence (G7PSE7 entry or part of it limits assumed): as the sequence (Q9NZQ7 19-238 limits assumed) above, with A33T, A34S, S62N, R68Q, Q82R, F173L, T185A, T192I, H215L counted along it
T1 sequence (Q9NZQ7 19-290): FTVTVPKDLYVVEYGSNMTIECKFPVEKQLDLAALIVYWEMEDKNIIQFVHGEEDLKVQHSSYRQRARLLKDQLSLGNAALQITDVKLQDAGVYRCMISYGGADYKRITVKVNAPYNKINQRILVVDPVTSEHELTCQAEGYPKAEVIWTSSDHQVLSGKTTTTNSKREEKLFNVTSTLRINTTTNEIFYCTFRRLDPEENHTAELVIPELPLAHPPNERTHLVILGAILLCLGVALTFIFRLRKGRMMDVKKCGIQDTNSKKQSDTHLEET
T3 sequence (Q9NZQ7 19-238 limits assumed): as the sequence (Q9NZQ7 19-238 limits assumed) above

B1: chimeric anti-PD-L1 antibody 51D5 (antibody, human IgG1, V domains shown)
VH: QSVEESGGRLVTPGTPLTLTCIVSGFSLSSYWMSWVRRAPGKGLEWIGYINGGSGNPYYASWAKGRFTISKTSTTVDLKITSPTTEDTATYFCARGGESDDYVYGRYGLDPWGPGTLVTVSS
VL: AYDMTQTPASVSEPVGGTVTIKCQASQSISSWLSWYQQKPGQPPKLLIYDASKLASGVPSRFSGSGSGTQFTLTISDLECDDAATYYCQQDYSSYNVDNTFGGGTEVVVK
notes: also called chimeric 51D5; c51D5
For the molecule B1, the EC50 (in general, the concentration at which the effect is half-maximal) in the experiment with human PD-L1 on cells [1] was 0.32 nM; with human PD-L1 on cells [7], 1.03 nM; with recombinant human PD-L1 [8] it was 0.0117 µg/mL; with human PD-L1 on cells [9], 1.12 nM. Also, the Kd (usually a measure of binding affinity in units of concentration) with human PD-L1 on cells [2] worked out at 0.025 nM; with human PD-L1 on cells [4], 0.5 nM; with human PD-L1 on cells [5] it was 0.16 nM; in the experiment with human PD-L1 on cells [6], 0.91 nM. Further, the EC50 (read off the curve) (usually the concentration at which the effect is half-maximal) with human PD-L1 on cells [3] was ~1 nM. In addition, the “IC50 (read off the curve)” value in experiment [10] is ~0.2 µg/mL.

B2: h51D5_HZD1 (antibody, V domains shown)
VH: EVQLVESGGGLVQPGGSLRLSCAASGFSLSSYWMSWVRRAPGKGLEWVGYINGGSGNPYYASWAKGRFTISRDNSKNTLYLQMNSLRAEDTAVYYCARGGESDDYVYGRYGLDPWGQGTLVTVSS
VL: DIQMTQSPSTLSASVGDRVTITCQASQSISSWLSWYQQKPGKAPKLLIYDASKLASGVPSRFSGSGSGTEFTLTISSLQPDDFATYYCQQDYSSYNVDNTFGGGTKVEIK
notes: also called humanized 51D5 HZD1
In the case of B2, in the experiment with recombinant human PD-L1 [8], the EC50 was 0.0156 µg/mL.

B3: h51D5_HZD2 (antibody, V domains shown)
VH: B2 VH with R39Q
VL: B2 VL
notes: also called humanized 51D5 HZD2
Take B3: in the experiment with recombinant human PD-L1 [8], the EC50 came to 0.0169 µg/mL.

B4: chimeric anti-PD-L1 antibody 15E9 (antibody, human IgG1, V domains shown)
VH: QSVEESGGRLVTPGTPLTLTCTVSGFDISNYWMSWVRQAPGKGLEYIGIISTGGNTWYASWVKGRFTISKTSTTVDLKMTSLTTEDTATYFCVRVVIYGGTTSSFNLWGPGTLVTVSS
VL: QVLTQTASPVSAAVGGTVTINCQSSQNVYNKIRLSWFQQKSGQPPKELIYAASSLASGVPSRFKGSGSGTEFTLTISDLECDDAATYYCQGGYSGPIYAFGGGTEVVVK
For B4, the EC50 with human PD-L1 on cells [11] came to 1.1 nM; with human PD-L1 on cells [13], 0.58 nM; with human PD-L1 on cells [7], 0.756 nM; with recombinant human PD-L1 [8] it was 0.0138 µg/mL; in the experiment with human PD-L1 on cells [9], 0.9 nM. The “EC50 (read off the curve)” value with recombinant human PD-L1 [12] is ~0.004 µg/mL. The Kd with human PD-L1 on cells [2] came to 0.026 nM; with human PD-L1 on cells [4] it was 0.42 nM. Also, the binding result in experiment [14] was “no binding (tested: 1000 ng/ml)”.

B5: chimeric anti-PD-L1 antibody 43G2 (antibody, human IgG1, V domains shown)
VH: QSVEESGGRLVTPGTPLTLTCTVSGFSLSSYAMGWVRQAPGEGLEYIGFIDTHGSAYYATWAKGRFTISRTSTTVDLKITSPTTEDTATYFCARNVWTNAGYFNLWGPGTLVTVSS
VL: DVVMTQTPSSVSAAVGGTVTIKCQASQNIYTNLAWYQQKPGQPPKLLIYSASTLASGVPSRFKGSGSGTQFTLTISDLECADAATYYCQTYGALIINGGAFGGGTEVVVK
As for B5, the EC50 in the experiment with human PD-L1 on cells [15] came to 7.7 nM; with human PD-L1 on cells [11], 1.6 nM. Besides, the results for the “EC50 (read off the curve)” value (with recombinant human PD-L1 [12]; in experiment [14]) were ~0.006 µg/mL and ~0.005 µg/mL, respectively.

B6: chimeric anti-PD-L1 antibody 11B11 (antibody, human IgG1, V domains shown)
VH: QSVEESGGRLVTPGGTLTLTCTASGFSLSNYTMAWVRQAAGKGLEWIGYINTGGSPYYASWAKGRFTISRSSTTVDLKMTSLTTEDTATYFCARNVDGAWNYLNLWGPGTLVTVSS
VL: AYDMTQTPASVEVVVGGTVTIKCQASETINTYLSWYQQKPGQRPRLLIYAASNLASGVPSRFSGSGSGTEFTLTISGVQCADAATYYCQQGINSNVGNTFGGGTEVVVK
With B6, the binding result in the experiment with recombinant human PD-L1 [16] is listed as “binds”.

B7: chimeric anti-PD-L1 antibody 27H2 (antibody, human IgG1, V domains shown)
VH: QSLEESGGDLVKPGASLTLTCTASGFSFSSGDYMCWVRQAPGKGLEGIACIYGGSSGSTYYANWAKGRFTISKTSSTTVTLQMTSLAAADTATYFCARDFRDVGYGYASFRLWGPGILVTVSS
VL: DIVMTQTPASVSEPVGGTVTIKCQASQSISSWLSWYQQKPGQPPKLLIYGASNLESGVSSRFKGSGSGTEYTLTISDLECADAATYYCQSNYGSSSSSLNAFGGGTEVVVK
On to B7, for which it took 0.75 nM to reach a half-maximal effect with human PD-L1 on cells [15] (EC50). For the same molecule, the binding result in [14] is “no binding (tested: 1000 ng/ml)”. The “IC50 (read off the curve)” value in [10] is ~0.02 µg/mL.

B8: h15E9_HZD1 (antibody, V domains shown)
VH: EVQLVESGGGLVQPGGSLRLSCAASGFDISNYWMSWVRQAPGKGLEWVGIISTGGNTWYASWVKGRFTISRDNSKNTLYLQMNSLRAEDTAVYYCARVVIYGGTTSSFNLWGQGTLVTVSS
VL: DIQMTQSPSSLSASVGDRVTITCQSSQNVYNKIRLSWYQQKPGKAPKELIYAASSLASGVPSRFSGSGSGTEFTLTISSLQPEDFATYYCQGGYSGPIYAFGGGTKVEIK
notes: also called humanized 15E9 HZD1
As for B8, the EC50 with recombinant human PD-L1 [8] was 0.267 µg/mL.

B9: h15E9_HZD2 (antibody, V domains shown)
VH: B8 VH
VL: B8 VL with E48R
notes: also called humanized 15E9 HZD2
B9: in the experiment with recombinant human PD-L1 [8], the EC50 came to 1.62 µg/mL.

B10: chimeric anti-PD-L1 antibody 23D12 (antibody, human IgG1, V domains shown)
VH: QSVEESGGRLVTPGTPLTLTCTVSGFSLSNYVMGWVRQAPGKGLEYIGIISNSDNTYYATWATGRFTISKTSTTVDLKMTSLTTEDTATYFCARVDTYYNDFNLWGPGTLVTVSS
VL: QVLTQTPSSVEAAVGGTVTIKCQASEDIERYLAWYQQKPGQPPKQLIYDASKLASGVSSRFKGSGSGTEFTLTISGVQCDDAATYYCQHGYIYSSGNPFGGGTEVVVK
As for B10, the figures for the EC50 with human PD-L1 on cells [15] and in the experiment with human PD-L1 on cells [11] were 1.3 nM and 1.7 nM, respectively. The “EC50 (read off the curve)” value in the experiment with recombinant human PD-L1 [12] is ~0.007 µg/mL; in [14], ~0.006 µg/mL.

B11: h9A9-HZD1 (antibody, V domains shown)
VH: EVQLVESGGGLVQPGGSLRLSCAASGIDLSGYWMSWVRQAPGKGLEWVGIVDNDGSAYYASWVNGRFTISRDNSKNTLYLQMNSLRAEDTAVYYCARQSGDWTFDLWGQGTLVTVSS
VL: DIQMTQSPSTLSASVGDRVTITCQASQSIGRWLSWYQQKPGKAPKLLIYQASKLASGVPSRFSGSGSGTEFTLTISSLQPDDFATYYCQNNYDIIAYGNAFGGGTKVEIK
notes: also called humanized 9A9 HZD1
As for B11, the EC50 in the experiment with recombinant human PD-L1 [8] was 0.0159 µg/mL.

B12: h9A9-HZD2 (antibody, V domains shown)
VH: B11 VH with I27F, L29V
VL: B11 VL
notes: also called humanized 9A9 HZD2
On to B12, for which, in the experiment with recombinant human PD-L1 [8], the EC50 came out at 0.0126 µg/mL.

Source of the values: patent US20190218296A1 (APEXIGEN, published 2019).
